The source of these data is patent US20200317768A1 (published 2020).

Where a chain is given by its changes, count along the chain named.

Common to all, as to experiment: SPR (BIACORE), antibody captured, FcgR analyte
(In general: In SPR one partner is held on a chip, and binding of the other changes the refractive index at the surface.)

For assay [1], the target named is T1, cynomolgus monkey FcγRIIa3 extracellular domain with C-terminal His-tag (cynomolgus monkey).
T1 construct: also called cyno FcgRIIa3; cynoFcγRIIa3
T1 chain: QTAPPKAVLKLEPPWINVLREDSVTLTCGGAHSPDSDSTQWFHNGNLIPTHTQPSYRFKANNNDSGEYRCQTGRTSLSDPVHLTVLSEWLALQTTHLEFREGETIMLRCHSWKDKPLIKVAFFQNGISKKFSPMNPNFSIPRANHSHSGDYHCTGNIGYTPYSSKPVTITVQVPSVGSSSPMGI

In assay [2] the target is T2, human FcγRIIIaV extracellular domain with C-terminal His-tag (human, UniProt P08637 17-208).
T2 construct: also called human FcgRIIIaV
T2 sequence (P08637 17-208 F176V): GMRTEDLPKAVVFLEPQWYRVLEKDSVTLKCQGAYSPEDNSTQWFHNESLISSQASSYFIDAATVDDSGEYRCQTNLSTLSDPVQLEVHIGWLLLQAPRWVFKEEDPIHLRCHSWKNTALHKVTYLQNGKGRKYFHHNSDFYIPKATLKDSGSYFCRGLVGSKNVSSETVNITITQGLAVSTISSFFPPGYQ

The target of assay [3] is T3, cynomolgus monkey FcγRIIIaS extracellular domain with C-terminal His-tag (cynomolgus monkey, UniProt Q8SPW2 21-206 at identity 1.00)).
T3 construct: also called cyno FcgRIIIaS; cynoFcγRIIIaS
T3 chain: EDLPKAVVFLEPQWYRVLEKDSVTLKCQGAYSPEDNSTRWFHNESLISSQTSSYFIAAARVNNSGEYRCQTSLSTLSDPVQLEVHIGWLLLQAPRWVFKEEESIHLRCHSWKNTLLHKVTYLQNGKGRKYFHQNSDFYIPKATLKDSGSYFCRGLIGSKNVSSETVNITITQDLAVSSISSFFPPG

The target in assay [4] is T4, human FcγRIIaR extracellular domain with C-terminal His-tag (human, UniProt P12318 34-217).
T4 construct: also called human FcgRIIaR; FcγRIIa (type R)
T4 chain: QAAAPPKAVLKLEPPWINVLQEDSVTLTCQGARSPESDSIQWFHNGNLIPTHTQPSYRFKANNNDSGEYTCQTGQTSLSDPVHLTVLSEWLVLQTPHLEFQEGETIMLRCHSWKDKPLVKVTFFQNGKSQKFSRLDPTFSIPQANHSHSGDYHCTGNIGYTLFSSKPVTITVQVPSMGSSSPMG

Assay [5] addresses T5, cynomolgus monkey FcγRIIa1 extracellular domain with C-terminal His-tag (cynomolgus monkey).
T5 construct: also called cyno FcgRIIa1; cynoFcγRIIa1
T5 chain: T1 chain with T95P, A121T, S128A, P133H, N135D

The target of assay [6] is T6, cynomolgus monkey FcγRIIa2 extracellular domain with C-terminal His-tag (cynomolgus monkey).
T6 construct: also called cyno FcgRIIa2; cynoFcγRIIa2
T6 chain: T1 chain with I127K, K130N, P133H, R142Q

The target of assay [7] is T7, human FcγRIIb extracellular domain with C-terminal His-tag (human, UniProt P31994 43-217).
T7 construct: also called human FcgRIIb
T7 sequence: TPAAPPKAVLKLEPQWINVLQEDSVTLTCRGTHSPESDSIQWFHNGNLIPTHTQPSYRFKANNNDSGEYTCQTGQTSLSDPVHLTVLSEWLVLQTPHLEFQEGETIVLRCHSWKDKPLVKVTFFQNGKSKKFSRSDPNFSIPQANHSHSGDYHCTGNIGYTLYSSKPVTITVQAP

For assay [8], the target named is T8, human FcγRIIaH extracellular domain with C-terminal His-tag (human, UniProt P12318 34-217).
T8 construct: also called human FcgRIIaH; FcγRIIa (type H)
T8 sequence: T4 chain with R134H

B1: M103205H795-MY209/M103202L889-SK1 (antibody, human IgG1, kappa)
heavy: QVTLKESGPVLVKPTETLTLTCTVSGIDLSHDDISWVRQAPGKGLEWVGIISYAGSTYYASWAKGRLTISKDTSKNQVVLTMTNMDPVDTATYYCARGVPAYSHGGDLWGQGTLVTVSSASTKGPSVFPLAPSSKSTSGGTAALGCLVKDYFPEPVTVSWNSGALTSGVHTFPAVLQSSGLYSLSSVVTVPSSSLGTQTYICNVNHKPSNTKVDKKVEPKSCDKTHTCPPCPAPELLNGPSVFLFPPKPKDTLMISRTPEVTCVVVDVSDEDPEVKFNWYVDGVEVHNAKTKPREELYNSTYRVVSVLTVLHQDWLNGKEYKCKVSNTALPKPIEKTISKAKGQPREPQVYTLPPSREEMTKNQVSLTCLVKGFYPSDIAVEWESNGQPENNYKTTPPVLDSDGSFFLYSKLTVDKSRWQQGNVFSCSVMHEALHNHYTQKSLSLSP
light: DIVMTQSPATLSLSPGERATLSCTSSQSVYHANWLSWFQQKPGQPPKLLIYWASTLAYGVPSRFSGSGSGTDFTLTISSLQPEDAATYYCAGGYGGGRYAFGQGTKVEIKRTVAAPSVFIFPPSDEQLKSGTASVVCLLNNFYPREAKVQWKVDNALQSGNSQESVTEQDSKDSTYSLSSTLTLSKADYEKHKVYACEVTHQGLSSPVTKSFNRGEC
notes: Substitutions introduced into M103205H795-SG1, expressed with M103202L889-SK1 as light chain; EU numbering
By Kd is commonly meant the concentration at which binding is half-saturated. Turning to B1, the Kd worked out at 1900 nM in assay [1]; 14000 nM in assay [2]; 2200 nM in assay [3]; 880 nM in assay [4]; 630 nM in assay [5]; 690 nM in assay [6]. The dissociation constant (Kd) amounted to 500 nM in assay [7] and 570 nM in assay [8].

B2: M103205H795-MY340/M103202L889-SK1 (antibody, human IgG1, kappa)
heavy: B1 heavy with N238L, T328K, P398K
light: B1 light
notes: as for B1
Consider B2, for which the Kd in assay [1] came out at 23000 nM; in assay [2] it was 17000 nM; in assay [3], 2300 nM; in assay [4], 830 nM; in assay [5], 4300 nM; in assay [6], 4900 nM. Besides, the dissociation constant Kd came to 3300 nM in assay [7] and 310 nM in assay [8].

B3: M103205H795-MY387/M103202L889-SK1 (antibody, human IgG1, kappa)
heavy: B1 heavy with N238T, S241V, L297Q, T328K
light: B1 light
notes: as for B1
B3: the Kd in assay [1] was found to be 1400 nM; in assay [2] it was 4700 nM; in assay [3], 2500 nM; in assay [4], 200 nM; in assay [5] it was 2300 nM; in assay [6], 19000 nM. Further, the dissociation constant Kd in assay [7] was found to be 1600 nM; in assay [8], 340 nM.

B4: M103205H795-MY386/M103202L889-SK1 (antibody, human IgG1, kappa)
heavy: B1 heavy with N238L
light: B1 light
notes: as for B1
For the molecule B4, the Kd was found to be 16000 nM in assay [1]; 24000 nM in assay [2]; 2500 nM in assay [3]; 1700 nM in assay [4]; 5200 nM in assay [5]; 5600 nM in assay [6]. Also, the equilibrium dissociation constant (Kd) came to 4600 nM in assay [7] and 810 nM in assay [8].

B5: M103205H795-MY341/M103202L889-SK1 (antibody, human IgG1, kappa)
heavy: B1 heavy with N238L, P398K
light: B1 light
notes: as for B1
On to B5, for which the Kd in assay [1] came to 8800 nM; in assay [2], 7000 nM; in assay [3] it was 340 nM; in assay [4] it was 420 nM; in assay [5], 2500 nM; in assay [6], 2900 nM. Further, the values for the equilibrium dissociation constant (Kd) in assay [7] and in assay [8] were 1800 nM and 260 nM, respectively.

B6: M103205H795-MY342/M103202L889-SK1 (antibody, human IgG1, kappa)
heavy: B1 heavy with N238L, T328K, P398M
light: B1 light
notes: as for B1
On to B6, for which the dissociation constant Kd in assay [1] came out at 51000 nM; in assay [2] it was 25000 nM; in assay [3], 2600 nM; in assay [4], 1000 nM; in assay [5], 5100 nM; in assay [6], 8500 nM. Moreover, the Kd in assay [7] worked out at 3900 nM; in assay [8], 370 nM.

B7: M103205H795-MY392/M103202L889-SK1 (antibody, human IgG1, kappa)
heavy: B1 heavy with N238T, L297Q, S300L, T328K
light: B1 light
notes: as for B1
B7: the dissociation constant (Kd) in assay [1] was 3900 nM; in assay [2] it was 8300 nM; in assay [3], 4000 nM; in assay [4], 410 nM; in assay [5], 300 nM; in assay [6], 2300 nM. Besides, the Kd in assay [7] worked out at 1700 nM; in assay [8] it was 430 nM.

B8: M103205H795-MY400/M103202L889-SK1 (antibody, human IgG1, kappa)
heavy: B1 heavy with N238T, L297Q, T328K, P333E
light: B1 light
notes: as for B1
In the case of B8, the Kd in assay [1] came out at 3800 nM; in assay [2], 7800 nM; in assay [3], 24000 nM; in assay [4], 740 nM; in assay [5], 18000 nM; in assay [6], 2200 nM. The dissociation constant (Kd) in assay [7] was 2500 nM; in assay [8], 420 nM.

B9: M103205H795-MY380/M103202L889-SK1 (antibody, human IgG1, kappa)
heavy: B1 heavy with D270E, L297Q, T328K, P398K
light: B1 light
notes: as for B1
For the molecule B9, the Kd is 3300 nM in assay [1]; 10000 nM in assay [2]; 2800 nM in assay [3]; 850 nM in assay [4]; 1000 nM in assay [6]; 480 nM in assay [7]. The molecule also yielded a Kd in assay [8] of 430 nM.

B10: M103205H795-MY339/M103202L889-SK1 (antibody, human IgG1, kappa)
heavy: B1 heavy with N238L, L297Q, P398K
light: B1 light
notes: as for B1
In the case of B10, the dissociation constant Kd in assay [1] was 3800 nM; in assay [2] it was 5600 nM; in assay [3] it was 760 nM; in assay [4] it was 530 nM; in assay [5], 3400 nM; in assay [6] it was 3000 nM. Besides, the Kd in assay [7] was found to be 2800 nM; in assay [8], 410 nM.

B11: M103205H795-MY389/M103202L889-SK1 (antibody, human IgG1, kappa)
heavy: B1 heavy with N238T, S241L, L297Q, T328K
light: B1 light
notes: as for B1
As for B11, the Kd was found to be 1400 nM in assay [1]; 3500 nM in assay [2]; 1500 nM in assay [3]; 190 nM in assay [4]; 2000 nM in assay [5]; 16000 nM in assay [6]. Further, the dissociation constant (Kd) worked out at 1100 nM in assay [7] and 270 nM in assay [8].

B12: M103205H795-MY283/M103202L889-SK1 (antibody, human IgG1, kappa)
heavy: B1 heavy with N238T, T328K
light: B1 light
notes: as for B1
For B12, the equilibrium dissociation constant (Kd) in assay [1] came out at 4400 nM; in assay [2] it was 5700 nM; in assay [3] it was 2200 nM; in assay [4], 350 nM; in assay [5], 1400 nM; in assay [6] it was 1600 nM. Besides, the Kd in assay [7] was 1800 nM; in assay [8] it was 140 nM.

B13: M103205H795-MY388/M103202L889-SK1 (antibody, human IgG1, kappa)
heavy: B1 heavy with N238T, S241I, L297Q, T328K
light: B1 light
notes: as for B1
In the case of B13, the Kd is 1300 nM in assay [1]; 4300 nM in assay [2]; 1600 nM in assay [3]; 230 nM in assay [4]; 2200 nM in assay [5]; 1700 nM in assay [6]. The equilibrium dissociation constant (Kd) in assay [7] amounted to 1500 nM; in assay [8] it was 330 nM.
